# Patent publication US20160289298A1
# Key:
# [1] = target: TGFβ2 (UniProt P61812); assay: SPR (Biacore), receptor-Fc captured by anti-Fc antibody, ligand injected
# [2] = target: TGFβ1 (UniProt P01137); assay: as above
# Sequence of TGFβ1 (P01137 279-390 limits assumed): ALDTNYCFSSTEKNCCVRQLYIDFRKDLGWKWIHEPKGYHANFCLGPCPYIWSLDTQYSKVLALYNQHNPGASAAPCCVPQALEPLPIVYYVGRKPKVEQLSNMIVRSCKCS
# Sequence of TGFβ2 (P61812 303-414 limits assumed): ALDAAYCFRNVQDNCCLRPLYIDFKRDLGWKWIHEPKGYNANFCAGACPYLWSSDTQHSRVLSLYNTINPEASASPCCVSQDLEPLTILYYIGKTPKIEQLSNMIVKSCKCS
substance,measurement,setting,value
TGFβRII-Fc homodimeric complex (from UniProt P37173 23-159) (Fc fusion),Kd,[1],> 44000 pM
same,Kd,[2],25 pM
